B1: KDM4C with a C-terminal YN or YC tag (enzyme, human, UniProt Q9H3R0 1-1056, looked up)
chain: MEVAEVESPLNPSCKIMTFRPSMEEFREFNKYLAYMESKGAHRAGLAKVIPPKEWKPRQCYDDIDNLLIPAPIQQMVTGQSGLFTQYNIQKKAMTVKEFRQLANSGKYCTPRYLDYEDLERKYWKNLTFVAPIYGADINGSIYDEGVDEWNIARLNTVLDVVEEECGISIEGVNTPYLYFGMWKTTFAWHTEDMDLYSINYLHFGEPKSWYAIPPEHGKRLERLAQGFFPSSSQGCDAFLRHKMTLISPSVLKKYGIPFDKITQEAGEFMITFPYGYHAGFNHGFNCAESTNFATVRWIDYGKVAKLCTCRKDMVKISMDIFVRKFQPDRYQLWKQGKDIYTIDHTKPTPASTPEVKAWLQRRRKVRKASRSFQCARSTSKRPKADEEEEVSDEVDGAEVPNPDSVTDDLKVSEKSEAAVKLRNTEASSEEESSASRMQVEQNLSDHIKLSGNSCLSTSVTEDIKTEDDKAYAYRSVPSISSEADDSIPLSSGYEKPEKSDPSELSWPKSPESCSSVAESNGVLTEGEESDVESHGNGLEPGEIPAVPSGERNSFKVPSIAEGENKTSKSWRHPLSRPPARSPMTLVKQQAPSDEELPEVLSIEEEVEETESWAKPLIHLWQTKSPNFAAEQEYNATVARMKPHCAICTLLMPYHKPDSSNEENDARWETKLDEVVTSEGKTKPLIPEMCFIYSEENIEYSPPNAFLEEDGTSLLISCAKCCVRVHASCYGIPSHEICDGWLCARCKRNAWTAECCLCNLRGGALKQTKNNKWAHVMCAVAVPEVRFTNVPERTQIDVGRIPLQRLKLKCIFCRHRVKRVSGACIQCSYGRCPASFHVTCAHAAGVLMEPDDWPYVVNITCFRHKVNPNVKSKACEKVISVGQTVITKHRNTRYYSCRVMAVTSQTFYEVMFDDGSFSRDTFPEDIVSRDCLKLGPPAEGEVVQVKWPDGKLYGAKYFGSNIAHMYQVEFEDGSQIAMKREDIYTLDEELPKRVKARFSTASDMRFEDTFYGADIIQGERKRQRVLSSRFKNEYVADPVYRTFLKSSFQKKCQKRQ
notes: Lysine demethylase KDM4C (GASC1), human, ORF amplified from pCMV-HA-GASC1; 1056 aa as printed; BiFC pair: one molecule stands for the YN and the YC conjugate; also called KDM4C-YN; KDM4C-YC; source: HEK293, transiently transfected, in cells; not shown: YN (Venus YFP residues 1-172) on one copy or YC (Venus YFP residues 155-238) on the other, C-terminal, kept

Assays:
Assay in all cases: split reporter (BiFC, NanoBiT); BiFC (Venus YN + YC), IF microscopy of fixed HEK293 cells with quantitative image analysis (Imaris): mean reconstituted YFP fluorescence in each anti-YFP positive cell, >100 cells for each transfection
[1] = target: KDM4B with a C-terminal YN or YC tag (human) (UniProt O94953)
[2] = target: B1
[3] = target: the molecule itself

Sequence of KDM4B with a C-terminal YN or YC tag (human) (O94953 whole entry): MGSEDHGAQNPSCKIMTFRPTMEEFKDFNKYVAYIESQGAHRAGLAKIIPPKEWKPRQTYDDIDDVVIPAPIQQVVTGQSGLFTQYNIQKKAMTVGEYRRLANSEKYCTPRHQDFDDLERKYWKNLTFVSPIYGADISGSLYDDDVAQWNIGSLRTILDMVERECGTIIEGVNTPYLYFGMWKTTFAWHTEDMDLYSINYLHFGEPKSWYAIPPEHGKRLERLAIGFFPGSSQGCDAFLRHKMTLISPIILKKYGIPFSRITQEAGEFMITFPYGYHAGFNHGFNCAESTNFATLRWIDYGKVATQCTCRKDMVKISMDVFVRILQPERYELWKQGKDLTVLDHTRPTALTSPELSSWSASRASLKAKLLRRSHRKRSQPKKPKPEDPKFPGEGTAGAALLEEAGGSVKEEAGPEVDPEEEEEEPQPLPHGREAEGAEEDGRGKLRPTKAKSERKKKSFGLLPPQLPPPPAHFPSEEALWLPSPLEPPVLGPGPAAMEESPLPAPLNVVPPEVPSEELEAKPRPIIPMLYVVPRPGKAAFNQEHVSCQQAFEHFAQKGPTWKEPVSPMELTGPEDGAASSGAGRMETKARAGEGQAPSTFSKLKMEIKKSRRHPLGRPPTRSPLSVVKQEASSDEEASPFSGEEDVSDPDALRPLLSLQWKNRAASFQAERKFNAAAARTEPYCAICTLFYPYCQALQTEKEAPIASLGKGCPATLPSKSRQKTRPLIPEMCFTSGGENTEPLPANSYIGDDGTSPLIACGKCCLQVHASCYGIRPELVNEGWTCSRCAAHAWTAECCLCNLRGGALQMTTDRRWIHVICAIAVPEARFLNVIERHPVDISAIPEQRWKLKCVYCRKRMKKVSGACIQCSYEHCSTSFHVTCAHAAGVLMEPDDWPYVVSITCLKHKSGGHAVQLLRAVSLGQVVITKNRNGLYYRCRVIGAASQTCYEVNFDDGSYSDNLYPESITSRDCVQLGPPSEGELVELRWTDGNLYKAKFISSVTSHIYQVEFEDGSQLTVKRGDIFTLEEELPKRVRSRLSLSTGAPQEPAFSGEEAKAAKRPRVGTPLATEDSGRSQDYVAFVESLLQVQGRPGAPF

Row | YFP fluorescence (BiFC), Average (arbitrary units) [1] | YFP fluorescence (BiFC), Max (arbitrary units) [1] | YFP fluorescence (BiFC), Median (arbitrary units) [1] | YFP fluorescence (BiFC), Min (arbitrary units) [1] | YFP fluorescence (BiFC), Average (arbitrary units) [2] | YFP fluorescence (BiFC), Max (arbitrary units) [2] | YFP fluorescence (BiFC), Median (arbitrary units) [2] | YFP fluorescence (BiFC), Min (arbitrary units) [2] | YFP fluorescence (BiFC), Average ([2]; partners not purified) | YFP fluorescence (BiFC), Max ([2]; partners not purified) | YFP fluorescence (BiFC), Median ([2]; partners not purified) | YFP fluorescence (BiFC), Min ([2]; partners not purified) | Molecule | YFP fluorescence (BiFC), Average [3] | YFP fluorescence (BiFC), Max [3] | YFP fluorescence (BiFC), Median [3] | YFP fluorescence (BiFC), Min [3]
1 | 129 | 320 | 120 | 48 | 170 | 356 | 146 | 50 |  |  |  |  | KDM4B with a C-terminal YN or YC tag (from UniProt O94953 1-1096) (enzyme) |  |  |  | 
2 | 110 | 309 | 104 | 19 |  |  |  |  | 845 arbitrary units | 3080 arbitrary units | 717 arbitrary units | 320 arbitrary units | KDM4A with a C-terminal YN or YC tag (enzyme, human, UniProt O75164 1-1064, looked up, Lysine demethylase KDM4A (JmjD2A), human, ORF amplified from pCMV-HA-JmjD2A; BiFC pair: one molecule stands for the YN and the YC conjugate; also called KDM4A-YN; KDM4A-YC; source: HEK293, transiently transfected, in cells; not shown: YN (Venus YFP residues 1-172) on one copy or YC (Venus YFP residues 155-238) on the other, C-terminal, kept) MASESETLNPSARIMTFYPTMEEFRNFSRYIAYIESQGAHRAGLAKVVPPKEWKPRASYDDIDDLVIPAPIQQLVTGQSGLFTQYNIQKKAMTVREFRKIANSDKYCTPRYSEFEELERKYWKNLTFNPPIYGADVNGTLYEKHVDEWNIGRLRTILDLVEKESGITIEGVNTPYLYFGMWKTSFAWHTEDMDLYSINYLHFGEPKSWYSVPPEHGKRLERLAKGFFPGSAQSCEAFLRHKMTLISPLMLKKYGIPFDKVTQEAGEFMITFPYGYHAGFNHGFNCAESTNFATRRWIEYGKQAVLCSCRKDMVKISMDVFVRKFQPERYKLWKAGKDNTVIDHTLPTPEAAEFLKESELPPRAGNEEECPEEDMEGVEDGEEGDLKTSLAKHRIGTKRHRVCLEIPQEVSQSELFPKEDLSSEQYEMTECPAALAPVRPTHSSVRQVEDGLTFPDYSDSTEVKFEELKNVKLEEEDEEEEQAAAALDLSVNPASVGGRLVFSGSKKKSSSSLGSGSSRDSISSDSETSEPLSCRAQGQTGVLTVHSYAKGDGRVTVGEPCTRKKGSAARSFSERELAEVADEYMFSLEENKKSKGRRQPLSKLPRHHPLVLQECVSDDETSEQLTPEEEAEETEAWAKPLSQLWQNRPPNFEAEKEFNETMAQQAPHCAVCMIFQTYHQVEFGGFNQNCGNASDLAPQKQRTKPLIPEMCFTSTGCSTDINLSTPYLEEDGTSILVSCKKCSVRVHASCYGVPPAKASEDWMCSRCSANALEEDCCLCSLRGGALQRANDDRWVHVSCAVAILEARFVNIAERSPVDVSKIPLPRFKLKCIFCKKRRKRTAGCCVQCSHGRCPTAFHVSCAQAAGVMMQPDDWPFVVFITCFRHKIPNLERAKGALQSITAGQKVISKHKNGRFYQCEVVRLTTETFYEVNFDDGSFSDNLYPEDIVSQDCLQFGPPAEGEVVQVRWTDGQVYGAKFVASHPIQMYQVEFEDGSQLVVKRDDVYTLDEELPKRVKSRLSVASDMRFNEIFTEKEVKQEKKRQRVINSRYREDYIEPALYRAIME | 943 arbitrary units | 3140 arbitrary units | 726 arbitrary units | 259 arbitrary units
3 |  |  |  |  |  |  |  |  |  |  |  |  | B1 | 741 arbitrary units | 2890 arbitrary units | 628 arbitrary units | 204 arbitrary units
